The test system of this assay is cultured proximal and distal airway epithelium. In words: IL-13-induced mucous metaplasia (goblet cell differentiation) in cultured proximal and distal airway epithelium (ALI). It counts as cell-based, mouse. The following applies: rIL-13 25 ng/mL vs control; epithelia from proximal vs distal trachea, Foxj1-GFP mice n=6; p<0.001. The method, then:
Transwell cultures. Cells were cultured and expanded in complete SAGM (small airway epithelial cell growth medium; Lonza, CC-3118) containing TGF-β/BMP4/WNT antagonist cocktails and 5 μM Rock inhibitor Y-27632 (Selleckbio, S1049). To initiate air-liquid interface (ALI) cultures, airway basal stem cells were dissociated from mouse tracheas and seeded onto transwell membranes. After reaching confluence, media was removed from the upper chamber. Mucociliary differentiation was performed with PneumaCult-ALI Medium (StemCell, 05001). Differentiation of airway basal stem cells on an air-liquid interface was followed by directly visualizing beating cilia in real time after 10-14 days. […]
Statistical analysis of proximodistal mucous metaplasia. For the analysis in FIG. 18H,I, the extent of goblet cell hyperplasia was assessed using counts of Muc5ac^+ goblet cells, normalized to counts of GFP^+ ciliated cells. To quantify differences in the count values between the samples in different conditions (n=6, Foxj1-GFP mice), Applicants fit a negative binomial regression using the ‘glm.nb’ function from the ‘MASS’ package in R. Pairwise comparisons between means for each condition were computed using post hoc tests and p-values were adjusted for multiple comparisons using Tukey's HSD, implemented using the function ‘pairs’ from the ‘emeans’ package in R.

B1: rIL-13: recombinant murine IL-13 (Peprotech) used to induce mucous metaplasia (protein, UniProt P20109 19-131, looked up)
Interleukin-13: APGPVPRSVSLPLTLKELIEELSNITQDQTPLCNGSMVWSVDLAAGGFCVALDSLTNISNCNAIYRTQRILHGLCNRKAPTTVSSLPDTKIEVAHFITKLLSYTKQLFRHGPF
For B1, the “induction of goblet cell differentiation (Muc5ac+ goblet cells / GFP+ ciliated cells)” value is given as “much higher induction of goblet cell differentiation in the distal epithelium”.

For the origin of these results see US12331319B2, “Respiratory and sweat gland ionocytes” (The Broad Institute, Inc., priority 2017, dated 2025).
